Test results from PMC8803338.

Target: sarcomeric α-Actin (ACTC1) (mouse (endogenous in heart)) (UniProt P68033)
Test: co-IP; heart lysates of CTL and α-MHC-cre DKO mice, mouse anti-α-Actin, Protein A/G beads, Western blot, densitometry (n = 4)

fold change of ACTN co-precipitated with ACTC1, α-MHC-cre DKO hearts against CTL hearts: 0.63 fold
Substance: sarcomeric α-Actinin (ACTN) (from UniProt Q9JI91 1-894) (natural protein)
